US8034572B2, “Receptor for GDNF family ligands” (priority 2006, dated 2011)

Columns and labels:
[1] = SPR (IAsys): GFLs interaction with heparin-BSA cuvette; assay type: binding
Experimental: (§1) The affinities of GFLs for heparin and heparin-like molecules (e.g. syndecan-3) were determined by plasmon surface resonance using the IAsys system (Affinity Sensors, Cambridge, UK). Planar aminosilane cuvettes (Affinity Sensors) were used for protein coupling to avoid problems with mass transport, which occur frequently with matrix surfaces. In the initial approach, heparin-BSA was immobilized to the cuvette surface using the manufacturer's instructions and different ligand concentrations were used to determine association (ka) and dissociation (kdis) rates using the IAsys Fastfit software. The dissociation constant Kd was determined from the binding dynamics as […], or from equilibrium response (R) using a simple Langmuir fit: R=(Rmax*C)/(Kd+C), where C is the ligand concentration. […] The dissociation constants were determined from binding dynamics and equilibrium response. The same cuvettes were used to test binding of heparan sulfate proteoglycan syndecan-3, which was purified as an ectodomain from early postnatal rat brains by HB-GAM affinity chromatography (Raulo et al., 1994).
(§2) Binding was analyzed using IAsys cuvettes with immobilized heparin-BSA or GFLs. The dissociation constant Kd was determined from dynamics of association and dissociation (Kd=kdis/ka), or from equilibrium response R (R=(Rmax*C)/(Kd+C), where C is ligand concentration).

[2] = target: T1, syndecan-3 ectodomain (Rattus norvegicus, UniProt P33671); test: SPR (IAsys): syndecan-3 ectodomain interaction with GFLs cuvette; assay type: binding; settings: syndecan-3 ectodomain in solution
T1 construct: purified as an ectodomain from early postnatal rat brains; from tissue; host or cells: early postnatal rat brain
Experimental: as §1, §2

[3] = test system: SHEP cells; test: SHEP cell adhesion and spreading assay on immobilized proteins; assay type: cell-based, human; settings: protein immobilized on plastic microplate
Experimental: Cell adhesion assays were essentially performed as described elsewhere (Weinacker et al., 1994). To prepare protein-coated surfaces the protein of interest (10 μg/ml in PBS) was applied to 96-well ELISA (Greiner) plates or to glass cover slips for 12-18 hours at +4° C. After incubation, the surfaces were washed with PBS and blocked with 1% globulin-free BSA for two hours. Some GDNF coated surfaces were incubated with 20 μg/ml of G-90 (Amgen) GDNF function-blocking antibodies (Xu et al., 1998) for 2 hours at room temperature.
Subconfluent SHEP cells were harvested in PBS supplemented with 10 mM EDTA for 5 min at 37° C. Cells were washed with incubation buffer (RPMI 1640, 0.2% BSA, 15 mM HEPES pH 7.2) and 10000-40000 cells/well plated on the protein coated surface. Plates were centrifuged for 5 min at 10 g and incubated for one hour at 37° C. in 5% CO2. After incubation cells were washed with PBS, fixed with methanol supplemented with crystal violet for 15 min at room temperature and washed again with PBS. The remaining cells were counted using a Leica DMIRB inverted microscope with 10× objective in 5 fields per well.
Some cells were pretreated with heparinase III, PI-PLC (see above), 0.3 U/ml chodroitinase ABC for one hour at 37° C., 5% CO2, or with 20 μg/ml of NCAM blocking antibodies (AB5032, Chemicon Inc.) for 15-30 min on ice.
After one hour of incubation in serum-free medium unattached cells were removed by washing. The remaining cells were stained and counted on Leica DMIRB inverted microscope with a 10× objective in 5 fields per well and the resulting cell number was calculated for the whole well.
Live SHEP cells spreading on immobilized GDNF were imaged for 20 minutes using the Till imaging system with an Imago-QE digital camera (Till Photonics) equipped with heating (+37° C.) and CO2 supply (5%) chambers.

[4] = test system: Src family kinase; test: Src kinase phosphorylation assay in SHEP cells; assay type: cell-based, human; settings: SHEP cells plated on immobilized protein
Experimental: SHEP cells from 10-cm plates were harvested as described above and plated on GDNF-coated 35-mm Petri dishes. Cells were allowed to sediment for 10 min at room temperature and then transferred to 37° C. for additional 15 min. Cells were lysed in the lysis buffer (TBS, 1% Triton X-100, 0.5% deoxycholic acid, 0.1% SDS, 10% glycerol, 1 mM Na3VO4, 1 mM PMSF and Complete protease inhibitor mixture). Lysates were analyzed on 10% SDS-PAGE and western blots were stained with anti-pY^418Src or anti-pp60Src antibodies (Biosource). Some cells were pretreated with heparinase III or PI-PLC.

T1 sequence (P33671 45-387 limits assumed): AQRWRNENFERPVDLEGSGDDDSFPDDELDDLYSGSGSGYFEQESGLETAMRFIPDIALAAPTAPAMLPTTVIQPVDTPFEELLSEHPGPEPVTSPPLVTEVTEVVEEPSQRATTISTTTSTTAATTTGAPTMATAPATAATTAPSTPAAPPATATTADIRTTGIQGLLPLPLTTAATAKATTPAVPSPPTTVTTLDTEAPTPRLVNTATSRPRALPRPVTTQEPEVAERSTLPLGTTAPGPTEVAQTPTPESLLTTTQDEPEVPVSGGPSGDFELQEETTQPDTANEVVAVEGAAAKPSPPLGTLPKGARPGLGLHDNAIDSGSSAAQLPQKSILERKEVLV

- Kd = kdis/ka ([1]; from dynamics): 47.3 ± 9.9 nM
- Kd ([1]; from equilibrium response): 51.3 ± 3.6 nM
- ka (×10^−5) (M^−1s^−1) [2]: 13 ± 2 (×10^−5) M^−1s^−1
B1: GDNF: Glial cell line-derived neurotrophic factor, secreted growth factor, GDNF family ligand (protein)
chain: SPDKQMAVLPRRERNRQAAAANPENSRGKGRRGQRGKNRGCVLTAIHLNVTDLGLGYETKEELIFRYCSGSCDAAETTYDKILKNLSRNRRLVSDKVGQACCRPIAFDDDLSFLDDNLVYHILRKHSAKRCGCI
- ka (×10^−5) (M^−1s^−1) ([1]; GFL in solution): 3.7 (×10^−5) M^−1s^−1
- kdis ([1]; GFL in solution): 0.017 s⁻¹
- adherence and spreading of SHEP cells on immobilized protein [3]: induced adherence and spreading
- activation of Src family kinases (pY^418Src Western blot) [4]: induces HSPG-dependent activation of Src family kinases
